Reference: patent US20130195901A1

Target: HLA-A*0201 class I monomer of the iTopia Epitope Discovery System
Test: iTopia binding ED50
Conditions: modification not given

For YLSEKIFYV [PSMA 288-297 (L289(Nle), I297(Nle))], the EC50 was 524 nM.
